Results: the supplement of paper PMC11780869

System: Bacillus subtilis
Experiment: cleaved RNA product abundance (RNA/gDNA barcode ratio) relative to median wild-type variant (ratio to wild type); higher = more accumulation of the downstream cleavage product
Conditions: cleavage site: cggR-gapA (positions -7 to +36 mutated)
Procedure, shortened: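 In LB at 37°C, B. subtilis cultures went from OD600 0.0003 to 0.3. Their chromosomes held barcoded reporter mRNAs, truncated aprE or tetM, with RNase Y cleavage-site windows mutagenized via oligos at a 9% error rate. Cleaved RNA, chosen by gel, was reverse transcribed and barcode-sequenced alongside genomic DNA barcodes with UMI collapsing, giving a per-construct RNA:gDNA ratio scaled to the median construct with the unmutated site. This scaled ratio is termed cleaved product abundance.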

[1] = experiment (reporter, strain, medium): exp 2b: truncated aprE reporter, strain BJT200
[2] = experiment (reporter, strain, medium): exp 4a: truncated aprE reporter, strain BJT201 with 2% xylose (RNase J1 expressed)

| Sequence | cleaved RNA product abundance [1] | cleaved RNA product abundance [2] |
| --- | --- | --- |
| ACAGACGAAGGAGCCGCAAATAAGTTATTAAGGGATGATTAATCCCTCAATATAAATATCTCTCACTTATTTAAA | 0.783 | 0.697 |
| ACAGACGAAGGAGCCGCAAATAAGTTATTAAGGGATGCATAATCCCTCAATATAAATATCTCTCACTTATTTAAA | – | 1.1 |
| ACAGACGAAGGAGCCGCAAATAAGTTATTAAGGGATGTATAATCCCTCAATATAAATATCTCTCACTTATTTAAA | – | 0.901 |
| ACAGACGAAGGAGCCGCAAATAAGTTATTAAGGGATTAATAATCCCTCAATATAAATATCTCTCACTTATTTAAA | 0.863 | 0.881 |
| ACAGACGAAGGAGCCGCAAATAAGTTATTAAGGGCTGAATAATCCCTCAATATAAATATCTCTCACTTATTTAAA | – | 0.627 |
| ACAGACGAAGGAGCCGCAAATAAGTTATTAAGGGGTGAATAATCCCTCAATATAAATATCTCTCACTTATTTAAA | – | 0.273 |
| ACAGACGAAGGAGCCGCAAATAAGTTATTAAGGGTTGAATAATCCCTCAATATAAATATCTCTCACTTATTTAAA | 0.425 | 0.423 |
| ACAGACGAAGGAGCCGCAAATAAGTTATTAAGGTATGAATAAACCCTCAATATAAATATCTCTCACTTATTTAAA | 0.118 | – |
| ACAGACGAAGGAGCCGCAAATAAGTTATTAAGGTATGAATAATCCCTCAATATAAATATCTCTCACTTATTTAAA | 0.169 | 0.139 |
| ACAGACGAAGGAGCCGCAAATAAGTTATTAAGGTATGAATAATCCCTCAATATAAATTTCTCTCACTTATTTAAA | – | 0.159 |
| ACAGACGAAGGAGCCGCAAATAAGTTATTAAGGTTTGAATAATCCCTCAATATAAATATCTCTCACTTATTTAAA | – | 0.0913 |
| ACAGACGAAGGAGCCGCAAATAAGTTATTAAGTGATGAATAATCCCTCAATATAAATATCTCTCACTTATTTAAA | 0.109 | 0.107 |
| ACAGACGAAGGAGCCGCAAATAAGTTATTAATGAATGAATAATCCCTCAATATAAATATCTCTCACTTATTTAAA | – | 0.107 |
| ACAGACGAAGGAGCCGCAAATAAGTTATTAATGGATGAATAATCCCTCAATATAAATATCTCTCACTTATTTAAA | 0.123 | 0.184 |
| ACAGACGAAGGAGCCGCAAATAAGTTATTAATGGATGAATAATCCCTCATTATAAATATCTCTCACTTATTTAAA | – | 0.135 |
| ACAGACGAAGGAGCCGCAAATAAGTTATTACGGGATGAATAATCCCTCAATATAAATATCTCTCACTTATTTAAA | – | 0.36 |
| ACAGACGAAGGAGCCGCAAATAAGTTATTAGGGGATGAATAATCCCTCAATATAAATATCTCTCACTTATTTAAA | 0.603 | – |
| ACAGACGAAGGAGCCGCAAATAAGTTATTATGGGATGAATAATCCCTCAATATAAATATCTCTCACTTATTTAAA | – | 0.365 |
| ACAGACGAAGGAGCCGCAAATAAGTTATTATGGGATGAATAATCCCTCTATATAAATATCTCTCACTTATTTAAA | – | 0.483 |
| ACAGACGAAGGAGCCGCAAATAAGTTATTCAGGGATGAATAATCCCTCAATATAAATATCTCTCACTTATTTAAA | – | 1.09 |
| ACAGACGAAGGAGCCGCAAATAAGTTATTTAGGGATGAATAATCCCTCAATATAAATATCTCTCACTTATTTAAA | 0.993 | 0.766 |

| Sequence | cleaved RNA product abundance [1] | cleaved RNA product abundance [2] |
| --- | --- | --- |
| ACAGACGAAGGAGCCGCAAATAAGTTCTTAAGGGATGAATAATCCCTCAATATAAATATCTCTCACTTATTTAAA | 0.148 | 0.258 |
| ACAGACGAAGGAGCCGCAAATAAGTTGTTAAGGGATGAATAATCCCTCAATATAAATATCTCTCACTTATTTAAA | – | 0.458 |
| ACAGACGAAGGAGCCGCAAATAAGTTTTTAAGGGATGAATAATCCCTCAATATAAATATCTCTCACTTATTTAAA | 0.29 | 0.402 |
| ACAGACGAAGGAGCCGCAAATAATTTATTAAGGGATGAATAATCCCTCAATATAAATATCTCTCACTTATTTAAA | 0.866 | 0.591 |
| ACAGACGAAGGAGCCGCAAATACGTTATTAAGGGATGAATAAACCCTCAATATAAATATCTCTCACTTATTTAAA | – | 0.383 |
| ACAGACGAAGGAGCCGCAAATACGTTATTAAGGGATGAATAATCCCTCAATATAAATATCTCTCACTTATTTAAA | – | 0.984 |
| ACAGACGAAGGAGCCGCAAATATGTTATTAAGGGATGAATAATCCCTCAATATAAATATCTCTCACTTATTTAAA | – | 1.1 |
| ACAGACGAAGGAGCCGCAAATGAGTTATTAAAGGATGAATAATCCCTCAATATAAATATCTCTCACTTATTTAAA | 0.181 | – |
| ACAGACGAAGGAGCCGCAAATGAGTTATTAAGGGATGAATAATCCCTCAATATAAATATCTCTCACTTATTTAAA | – | 1.15 |
| ACAGACGAAGGAGCCGCAAATTAGTTATTAAGGGATGAAAAATCCCTCAATATAAATATCTCTCACTTATTTAAA | – | 0.655 |
| ACAGACGAAGGAGCCGCAAATTAGTTATTAAGGGATGAATAATCCCTCAATATAAATATCTCTCACTTATTTAAA | – | 0.919 |
| ACAGACGAAGGAGCCGCAAATTAGTTATTAAGGGATGAATAATCCCTCTATATAAATATCTCTCACTTATTTAAA | – | 0.215 |
| ACAGACGAAGGAGCCGCAAATTAGTTATTAATGGATGAATAATCCCTCAATATAAATATCTCTCACTTATTTAAA | – | 0.153 |
| ACAGACGAAGGAGCCGCAACAAAGTTATTAAGGGATGAATAATCCCTCAATATAAATATCTCTCACTTATTTAAA | – | 0.8 |
| ACAGACGAAGGAGCCGCAACAAGTTATTAAGGGATGAATAATCCCTCAATATAAATATCTCTCACTTATTTAAAG | – | 0.581 |
| ACAGACGAAGGAGCCGCAACGAAATTATTAAGGGATGAATAATCCCTCAATATAAATATCTCTCACTTATTTAAA | 1.1 | 1.03 |
| ACAGACGAAGGAGCCGCAACGAAGTAATTAAGGGATGAATAATCCCTCAATATAAATATCTCTCACTTATTTAAA | – | 0.347 |
| ACAGACGAAGGAGCCGCAACGAAGTTAATAAGGGATGAATAATCCCTCAATATAAATATCTCTCACTTATTTAAA | 0.227 | – |
| ACAGACGAAGGAGCCGCAACGAAGTTATAAAGGGATGAATAATCCCTCAATATAAATATCTCTCACTTATTTAAA | – | 0.54 |
| ACAGACGAAGGAGCCGCAACGAAGTTATTAAAGGATGAATAATCCCTCAATATAAATATCTCTCACTTATTTAAA | – | 0.213 |
| ACAGACGAAGGAGCCGCAACGAAGTTATTAACGGATGAATAATCCCTCAATATAAATATCTCTCACTTATTTAAA | – | 0.155 |
